Protein production data for 29 sequences are collected here from a protein production outcome set (Wang et al. 2014).

A short description of the data set: label from the status in PepcDB records.
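Also: failed if final PepcDB status was selected cloned or expressed and not failed if soluble or beyond.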

“STITYYRTDLFKQAGLSMPERPTWTQLGEFAAKLHQPDKGVYGMCLRGKAGWGENIALLSTMANAFGARWFDEHWKPELNSPEWANAANFYVNTLKNYGPPGVSSNGFNETLALFNSGKCALWVDASVAGSFTTDKEQSKVVDSVGFAPAPVEVTDKGSSWLYAWSLAIPATSRHKDAAKAFITWATSKAYIQLVAEKDGITNVPPGTRTSTYSEA”: the protein production result is reported as “failed”.

As for “STMTVIKDYYALKENEICVSQSEVVQVLAVNQQNMCLVYQPASDHSPAAKGWVPGSILAPF”, the protein production entry is listed as “not failed”.

Consider “STQYMELNQRDEKSPFRNANLRKAISYSIDRKALVESILGDGSIEPNGLVPADMAKDPSGGKDFAKEAGSQIEYDTKKAKEYWEKAKKELGISTLTMDILSSDADSSKKTVEFVQGSIQDALDGVKVTVSPVPFSVRLDRSNKGDFDAVIGGWSADYADPSSFLDLFASDNSYNRGRYNNAEFDKFVKAASSADATDPEKRWDDMLNAEKTIMGDMGVVPLFQKS”, for which the protein production result is recorded as “not failed”.

As for “STRPVGGTEYSWCRAIDGGTGIAVIALLLSRTPKLQNLQNTLDKLQIYHPTLRSNIRFDASANSFSFVVTSAADSHVEIHPFDSVSTAQIIRDSDDPCADPHRIILEHEMNKNTWINPHRWIKSESRVFIVSLYDLTDDGEQRILTFRLNTAAVDRTAAVTLLREFMKETAADGFGNGPVVAATETAVGLGKAIEELIPSGKGDKPFWARGIDVLGYSLNAFRFSNLNFVDAENSNRRSQLVRLKLDRDQTLKLVAGCKARGLKLWAALASSALIAAYSSKNLPPYQGEKYAVVTLSDCRSILEPPLTSNDFGFYHAGILHTHDLTGEEKLWDLAKRCYDSFTSSKNSNKQFTDMSDLNFLMCKAIENPNLTPSSSLRTAFISIFEDPVIDESPEPELASLGVQDYIGCASIHGVGPSVAVFDALRDGKLDCAFVYPSPLHSREQMDGLIQHMKTILLEGSASSF”, the protein production result is reported as “not failed”.

Consider “STSPTATKYDVFLSFRGVDTRRNFISFLYKEFVRRKIRTFKDDKELENGRRISPELKRAIEESKFAVVVVSVNYAASPWCLDELVKIMDFENKGSITVMPIFYGVDPCHLRRQIGDVAEQFKKHEAREEDHEKVASWRRALTSLASISGDCSSKCEDEAKLVDEIADKISKNLMTVTTISNGKNLVGIDTHMKALNKKLDLNSNKSLRVVGIWARGYNGRSALAKYVYQDICHHFDSHCFLGSVKRISQGRHLSHLHEEFLIRIQGSKHNLKDQKVLLVADDVYKLEQLDALAEDFNGFGPGSVVIITTQDKHLFVSAGIKLVYEVELLKFQKVCELFRQFAFKKRDISAAVKLVYYRATNWLGCLSGRSG”, for which the protein production result is “failed”.

For “STVKRKPVFVKVEQLKPGTTGHTLTVKVIEANIVVPVTRKTRPASSLSRPSQPSRIVECLIGDETGCILFTARNDQVDLMKPGATVILRNSRIDMFKGTMRLGVDKWGRIEATGAASFTVKEDNNLSLVEYE”, the protein production result is “not failed”.

With “SVDKNRTLHELSSKNFSRTPNGLIFTNDLKTVYSIFLICLDLKEKKHSSDTKSFLLTAFTKHFHFTFTYQEAIKAMGQLELKVDMNTTCINVSYNIKPSLARHLLTLFMSSKLLHTPQDRTRGEPKEKVLFQPTPKGVAVLQKYVRDIGLKTMPDILLSSFNSMKLFTFERSSVTDSIIHSDYLIHILFIKMMGAKPNVWSPTNADDPLPCLSSLLEYTNNDDTFTFEKSKPEQGWQAQIGNIDINDLERVSPLAHRFFTNPDSESHTQYYVSNAGIRLFENKTFGTSKKIVIKYTFTTKAIWQWIMDCTDIMHVKEAVSLAALFLKTGLIVPVLLQPSRTDKKKFQISRSSFFTLSKRGWDLVSWTGCKSNNIRAPNGSTIDLDFTLRGHMTVRDEKKTLDDSEGFSQDMLISSSNLNKLDYVLTDPGMRYLFRRHLEKELCVENLDVFIEIKRFLKKMTILKKLIDSKHCDKKSNTSTSKNNIVKTIDSALMKQANECLEMAYHIYSSYIMIGSPYQLNIHHNLRQNISDIMLHPHSPLSEHFPTNLYDPSPASAESAASSISSTEADTLGEPPEVSLKPSKNLSNENCSFKKQGFKHQLKEYKPAPLTLAETHSPNASVENSHTIVRYGMDNTQNDTKSVESFPATLKVLRKLYPLFEIVSNEMYRLMNNDSFQKFTQSDVYKDASALIEIQEKC”, the protein production result is listed as “failed”.

Take “SVMAEGTAVLRRNRPGTKAQDFYNWPDESFDEMDSTLAVQQYIQQNIRADCSNIDKILEPPEGQDEGVWKYEHLRQFCLELNGLAVKLQSECHPDTCTQMTATEQWIFLCAAHKTPKECPAIDYTRHTLDGAACLLNSNKYFPSRVSIKESSVAKLGSVCRRIYRIFSHAYFHHRQIFDEYENETFLCHRFTKFVMKYNLMSKDNLIVPILEEEVQNSVSGESEA”: the protein production entry is “failed”.

As for “SVTIDHTTENAAPAQAPVSDRAWALFRALDGKGLVPDGYVEGWKKTFEEDFSPRRGAELVARAWTPRRGAELVARAWTDPEFRQLLLTDGTAAVAQYGYLGPQGEYIVAVEDTPTLKNVIVCSLCSCTAWPILGLPPTWYKSFEYRARVVREPRKVLSEMGTEIASDIEIRVYDTTAETRYMVLPQRPAGTEGWSQEQLQEIVTKDCLIGVAIPQVPTV”, the protein production result is recorded as “not failed”.

Take “SYETSQHNLDAVEAVLSRLQKQTGEMAAYMVPVGYRALCVSQRESMQALRCSFVQGQSQPLLRGASSKVMLAYMPAARCEKILRYFGEDPTLDKWQSEFEKIRRHGYAVSTSEIDPGVSGISAPVMKGSKLIGAISVMAPAHRVESNKQRIILHVLQAARALPPER”: the protein production entry was “not failed”.

As for “TARKCLLEKVEVITGEEAESNVLQMQCKLFVFDKTSQSWVERGRGLLRLNDMASTDDGTLQSRLVMRTQGSLRLILNTKLWAQMQIDKASEKSIHITAMDTEDQGVKVFLISASSKDTGQLYAALHHRILALRSRVE”, the protein production result is “not failed”.

As for “TATNHQGLPAVDSEILEMPPEKADGVVEGIDVNGPKAQLMLRYPDGKREQITLPEQAKLLALVKHVQSKGYPNERFELLTNFPRRKLSHLDYDITLQEAGLCPQETVFVQE”, the protein production result is listed as “not failed”.

Turning to “TDAFVFEGFLPTRGKRRLEKLANLKGEQRVVIFYEAPGRLQAALADMREVLGDRHVVVARELTKIHEEFVRGRVSFVAEHFAAVDVKGEVVILVAPAPAP”, the protein production entry was “failed”.

“TDINSLRTRLRSGEHAFADTLAFIADGYDYQPQPFRNGDVDNAAGQNEGSCKTLGLALLEGLSDEEALLAFGEHYRSVQATPEGSDHGNIRALIKHGLAGVTFEGEPLKRK”: the protein production result is “not failed”.

As to “TDPDADRLGVEIRQPDGSYKNLSGNQIGAIIAKYILEAHKTAGTLPENAALAKSIVSTELVTKIAESYGATMFNVLTGFKFIAEKIQEFEEKHNHTYMFGFEESFGYLIKPFVRDKDAIQAVLLVAEIAAYYRSRGLTLADGIDEIYKEYGYFAE”, the protein production entry was “failed”.

Take “TDQAITFDDVLLVPSYNHHESRRVVETTSTDRLGKLTLNLPVISANMDTITESNMANFMHSKGAMGALHRFMTIEENIQEFKKCKGPVFVSVGCTENELQRAEALRDAGADFFCVDVAHAHAKYVGKTLKSLRQLLGSRCIMAGNVATYAGADYLASCGADIIKAGIGGGSVCSTRIKTGFGVPMLTCIQDCSRADRSIVADGGIKTSGDIVKALAFGADFVMIGGMLAGSAPTPGEVFQKDDGSKVKRYRGMASREAQEAFLGQMHEWKTAEGVATEVPFKENPDGIIADIIGGLRSGLTYAGADSISELQRKLNYVIVTQAGRIESLPHKLLEG”: the protein production result was “not failed”.

For the sequence “TEDSLMPEEEFLRRNKGPVSIKVQVPNMQDKTEWKLNGQGLVFTLPLTDQVSVIKVKIHEATGMPAGKQKLQYEGIFIKDSNSLAYYNMASGAVIHLALKER”, the protein production entry was “not failed”.

Regarding “TEDTVIKVSVLRGPSVIAFADWLENPPIIDNKKVQVKVVDSPDLAQALLIKQETDIAVLPMINAANLYNKGIKIKLAGCPIWGTLYLVEKTPLKEPALYVFGNGTTPDILTRYYLGRQRLDYPLNYAFNTAGEITQGILAGKVNRAVLGEPFLSIALRKDSSLRITADLNHLTDNDTLGFAQTAVVYTPTMEKYRIAFEDALRASCQKAVRYPKETIHSLEEHGIFAQGALTPKSIERCKIYYLSAIEAKDAVMGFLRLIEQYEPKAVGGRLPDAGFIPEKQ”, the protein production result is listed as “not failed”.

On to “TFDNLNSMNGKGSSTDGINYVFDSLMSSSLDEPGVMYPLLAKTATFDPEQTHFVIFELNPKARFSDGTPVTAQDVKFSFDTYQSKANPGLQMYISDLAKTEVLSKYRVKFSFKSQNNAEMPLILASLPIYSQKDWKNRDFTRVTLQPILGSGPYLIERIDPS”, for which the protein production entry is on record as “failed”.

In the case of “TFSYLAETDYPVFTLGGSTADAARRLAASGCACAPVLDGERYLGMVHLSRLLEGRKGWPTVKEKLGEELLETVRSYRPGEQLFDNLISVAAAKCSVVPLADEDGRYEGVVSRKRILGFLAERI”, the protein production result is reported as “failed”.

“TGALMASSPQDIKFQDLVVFILEKKMGTTRRALLMELARRKGFRVENELSDSVTHIVAENNSGSDVLEWLQAQKVQVSSQPELLDVSWLIECIGAGKPVEMTGKHQL”: the protein production result was “not failed”.

In the case of “TGELEVVQQAVKEMNDPSQPNEEGITALHNAICGANYSIVDFLITAGANVNSPDSHGWTPLHCAASCNDTVICMALVQHGAAIFATTLSDGATAFEKCDPYREGYADCATYLADVEQSMGLMNSGAVYALWDYSAEFGDELSFREGESVTVLRRDGPEETDWWWAALHGQEGYVPRNYFGLFPRVKPQRSKV”, the protein production result is “failed”.

With “TGNVCIEEIDVDGKFIRLKNTSEQDQPMGGWEMIRKIGDTSVSYKYTSRYVLKAGQTVTIWAANAGVTASPPTDLIWKNQNSWGTGEDVKVILKNSQGEEVAQRSTVFKTTIP”, the protein production entry is recorded as “failed”.

Regarding “THGVVIIDVTKNENKVIYVNRAFERITGYGEQHALGKGLLTLLGSNLEEVNHKRIELAIRESKEETIEMESIKRNGEFYWCEISVAPVKDSF”, the protein production result is given as “failed”.

Consider “TIEARTAQSTPSAPPQKVMCVSMGSTTVRVSWVPPPADSRNGVITQYSVAYEAVDGEDRGRHVVDGISREHSSWDLVGLEKWTEYRVWVRAHTDVGPGPESSPVLVRTDEDVPSGPPRKVE”, for which the protein production entry is given as “not failed”.

As for “TIPEGLRAVVFDFDGTILDTETREFHHWQELYREHGRELALSDWQRGVGTWDAFDPWAGLPEQVQADRENVRARLHDTIVSDIAGQDLRPGVRAVLEGVKAAGLRLALATSSDREWVTRWMRQHNLLDLFEAVATRDDVRRVKPDPELYLLAAARLGLRPEECLAVEDSFNGATAAVAAGMRLVVVPNDVTRTQPFPAEWRRLEDGYAGGLAGLL”, the protein production result is recorded as “failed”.

For “TISSGVPPELPGPPTNLGISNIGPRSVTLQFRPGYDGKTSISRWLVEAQVGVVGEGEEWLLIHQLSNEPDARSMEVPDLNPFTCYSFRMRQVNIVGTSPPSQPSRKIQTLQ”, the protein production result was “not failed”.

Turning to “TKGEKKQESFLLEYVSANPTGPLHIGHARGAVFGDTLTRLARHLGYKFNTEYYVNDAGNQIYLLGLSILLSVKESILHENVEYPEQYYKGEYIVDLAKEAFEKFGKEFFSEENIPSLADWAKDKMLVLIKQNLEQAKIKIDSYVSERSYYDALNATLESLKEHKGIYEQEGKIWLASSQKGDEKDRVIIREDGRGTYLAADIVYHKDKMSRGYGKCINIWGADHHGYIPRMKAAMEFLGFDSNNLEIILAQMVSLLKDGEPYKMSKRAGNFILMSDVVDEIGSDALRYIFLSKKCDTHLEFDISDLQKEDSSNPVYYINYAHARIHQVFAKAGKKID”, the protein production result is listed as “failed”.

For the sequence “TLIYGHRGAKGEAPENTLASFQRCLEHGVNRCELDLHLSRDGELMVIHDPTLKRTTGRRGKVAEHDAATLATYDARKGGPGWVRPTPIPRLEELFEKCPFEHWQLEVKSASRERAARTVTRIRELTERFGNRDKVTVTSGSRTVLKALNELTPELSRGLVAEYAWLDPLKVAQHYGCALLALNWTLCTPERLLKAQRQGLHVSVWTVNEPALMRRLADFGVDSLITDFPGLASATLGNR”, the protein production entry is on record as “failed”.
